Measured values as given in article PMC3756526 (2013).
Values belong to the molecule of their own block, whether it stands above or below them.

Columns and labels:
[1] = target: ASB9–EloBC ternary complex (ankyrin-repeat and SOCS-box protein 9, Elongin B, Elongin C) (human) (UniProt Q96DX5); assay: native MS; nanoESI–MS of the reconstituted ASB9–EloBC–Cul5NTD sample at three concentrations; 500 mM ammonium acetate, pH 7.0
[2] = target: ASB9–EloBC ternary complex (ankyrin-repeat and SOCS-box protein 9, Elongin B, Elongin C) (human) (UniProt Q96DX5); assay: ITC; 288 K; Cul5NTD (450 μM) titrated into ASB9–EloBC (60 μM) in the cell; 50 mM HEPES, 100 mM NaCl, pH 7.5, 1 mM TCEP; one-set-of-sites model
[3] = target: ASB9–EloBC ternary complex (ankyrin-repeat and SOCS-box protein 9, Elongin B, Elongin C) (human) (UniProt Q96DX5); assay: ITC; 303 K; Cul5NTD (450 μM) titrated into ASB9–EloBC (60 μM) in the cell; 50 mM HEPES, 100 mM NaCl, pH 7.5, 1 mM TCEP; one-set-of-sites model
[4] = target: ASB9–EloBC ternary complex (ankyrin-repeat and SOCS-box protein 9, Elongin B, Elongin C) (human) (UniProt Q96DX5); assay: ITC; 298 K; Cullin NTD (450 μM) titrated into ASB9–EloBC (60 μM) in the cell; 50 mM HEPES, 100 mM NaCl, pH 7.5, 1 mM TCEP; one-set-of-sites model
[5] = target: ASB9–EloBC ternary complex (ankyrin-repeat and SOCS-box protein 9, Elongin B, Elongin C) (human) (UniProt Q96DX5); assay: differential scanning fluorimetry; 2 μM ASB9–EloBC with Cul5NTD at 8, 4, 2, 1, 0.5 and 0.25 μM; Sypro Orange; 50 mM HEPES, 100 mM NaCl, pH 7.5, 1 mM TCEP; 37 to 95 °C at 1 °C/min
[6] = target: T1, Cullin 5 N-terminal domain (residues 1–386, V341R, L345D) (human, UniProt Q93034 1-386, V341R | L345D); assay: ITC; 288 K
[7] = target: T1, Cullin 5 N-terminal domain (residues …); assay: ITC; 293 K
[8] = target: T1, Cullin 5 N-terminal domain (residues …); assay: ITC; 303 K

stoichiometry N [1]: 1
dH [2]: -3 kcal/mol
dH [3]: -8.3 kcal/mol
Kd [4]: 220 nM
dH [4]: -6 kcal/mol
stoichiometry N [4]: 1
ΔTm [5]: 4.6 °C
Molecule: Cullin 5 N-terminal domain (residues 1–386, V341R, L345D) (from UniProt Q93034 1-386) (domain or fragment)

Kd [6]: 282 nM
Kd [7]: 119 nM
Kd [8]: 61 nM
B1: ASB9–EloBC ternary complex (ankyrin-repeat and SOCS-box protein 9, Elongin B, Elongin C) (complex)
chain 1: SDWSPMHEAAIHGHQLSLRNLISQGWAVNIITADHVSPLHEACLGGHLSCVKILLKHGAQVNGVTADWHTPLFNACVSGSWDCVNLLLQHGASVQPESDLASPIHEAARRGHVECVNSLIAYGGNIDHKISHLGTPLYLACENQQRACVKKLLESGADVNQGKGQDSPLHAVARTASEELACLLMDFGADTQAKNAEGKRPVELVPPESPLAQLFLEREGPPSLMQLCRLRIRKCFGIQQHHKITKLVLPEDLKQFLLHL
chain 2: MDVFLMIRRHKTTIFTDAKESSTVFELKRIVEGILKRPPDEQRLYKDDQLLDDGKTLGECGFTSQTARPQAPATVGLAFRADDTFEALCIEPFSSPPELPDVMKPQDSGSSANEQAVQ
chain 3: MYVKLISSDGHEFIVKREHALTSGTIKAMLSGPGQFAENETNEVNFREIPSHVLSKVCMYFTYKVRYTNSSTEIPEFPIAPEIALELLMAANFLDC
